The data set has as its target MaRAP2-4 (Mentha arvensis, UniProt A0A1Z2X6Y3 1-315). Briefly: EMSA; DIG Gel Shift Kit 2nd Generation (Roche), manufacturer's protocol; buffer, pH and temperature not stated. The following applies: protein: recombinant; tags: GST (pGEX-4T2); label: DIG.

MaRAP2-4, sequence (A0A1Z2X6Y3 entry or part of it): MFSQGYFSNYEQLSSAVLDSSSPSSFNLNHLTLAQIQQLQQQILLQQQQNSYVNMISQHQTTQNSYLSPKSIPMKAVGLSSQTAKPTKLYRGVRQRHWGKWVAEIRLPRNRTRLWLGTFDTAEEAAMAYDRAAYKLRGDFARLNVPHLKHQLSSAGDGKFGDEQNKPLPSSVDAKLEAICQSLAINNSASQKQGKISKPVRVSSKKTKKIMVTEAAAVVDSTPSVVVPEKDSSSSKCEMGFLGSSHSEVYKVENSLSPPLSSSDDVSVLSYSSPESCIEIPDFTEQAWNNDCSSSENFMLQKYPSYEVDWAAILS

B1: AtSWEET10 promoter probe with DRE only (dsDNA)
DNA 1: AATTTCGCATGCCGACATCAATGTGCGCACAACA
DNA 2: TGTTGTGCGCACATTGATGTCGGCATGCGAAATT
Regarding B1, the binding result is given as “binds”.

B2: AtSWEET10 promoter probe with overlapping DRE and GCC (dsDNA)
DNA 1: ATGATTCACGGCCGCCGACGCCGTTCGTTACCA
DNA 2: TGGTAACGAACGGCGTCGGCGGCCGTGAATCAT
As to B2, the binding result is given as “binds”.

(Values after article PMC5785340, “MaRAP2‐4, a waterlogging‐responsive ERF from Mentha, regulates bidirectional sugar transporter AtSWEET10 to modulate stress response in Arabidopsis”.)
